Assay results published in patent publication US20180273635A1 (Zymeworks, published 2018).
Residue numbers refer to the chain shown, from its start. Names may count otherwise. Values belong to the binder of their own block, whether it stands above or below them.

Legend:
[1] = biological target: T1, Recombinant human HER2 (human, UniProt P04626 23-652); experiment: SPR, variant captured on anti-human Fc, HER2 flowed, 25 C, pre-SEC;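 further: HER2 extracellular domain binding on Biacore T200, CM5 chip with amine-coupled anti-human Fc, duplicate antigen dilutions, global 1:1 Langmuir fit, measured after protein A purification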
T1 construct: extracellular domain; analyte of the SPR assays; also called HER2 ECD; ECD2 of HER2
Experimental: (§1) The affinity towards HER2 ECD of the samples was measured by SPR on a Biacore T200 as follows. Between 2000 and 4000 RU of anti-human Fc injected at concentration between 5 and 10 μg/ml was immobilized on a CM5 chip using standard amine coupling. Antigen-binding constructs were captured on the anti-human Fc (injected at concentration at 0.51 microg/mL in PBST, 1 min at 10 microl/min) at response levels ranging from 120-270 RU. […] HER2 dilutions were analyzed in duplicates. Sensograms were fit globally to a 1: 1 Langmuir binding model, using the software provided with the Biacore T200. All experiments were conducted at 25° C.
(§2) The affinity of antigen-binding constructs in OA format was determined by SPR following protein A purification. […] Antigen-binding constructs in FSA format were purified by protein A affinity and SEC prior to assessment of affinity by SPR.

[2] = biological target: T1, Recombinant human HER2; experiment: SPR, variant captured on anti-human Fc, HER2 flowed, 25 C, post-SEC
Experimental: as §1, §2

[3] = biological target: T1, Recombinant human HER2; experiment: SPR, pre-SEC; ratio to WT v10013;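 further: SPR on Biacore T200 at 25 °C, constructs captured via anti-human Fc on CM5 chip, HER2 ECD as analyte, 1:1 Langmuir global fit, after protein A purification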
Experimental: as §1, §2

[4] = biological target: T1, Recombinant human HER2; experiment: SPR, post-SEC; ratio to WT v10013
Experimental: as §1, §2

[5] = biological target: T2, Recombinant human HER2 (human, UniProt P04626 23-652); experiment: calculated from the SPR Ka ratio to WT, -RTln(Ka,mut/Ka,WT), 298 K
T2 construct: extracellular domain; Analyte of the SPR assays; also called HER2 ECD; ECD2 of HER2

[6] = biological target: T2, Recombinant human HER2; experiment: SPR post-SEC (value taken over from Table 5); Ka ratio to WT v10013
Experimental: as §1, §2

B1: variant 9996 (antibody)
heavy: EVQLVESGGGLVQPGGSLRLSCAASGFTFADYTMDWVRQAPGKGLEWVGDVNPNSGGSIYNQRFKGRFTFSVDRSKNTLYLQMNSLRAEDTAVYYCARNLGPSFYFDYWGQGTLVTVSSASTKGPSVFPLAPSSKSTSGGTAALGCLVKDYFPEPVTVSWNSGALTSGVHTFPAVLQSSGLYSLSSVVTVPSSSLGTQTYICNVNHKPSNTKVDKKVEPKSCDKTHTCPPCPAPELLGGPSVFLFPPKPKDTLMISRTPEVTCVVVDVSHEDPEVKFNWYVDGVEVHNAKTKPREEQYNSTYRVVSVLTVLHQDWLNGKEYKCKVSNKALPAPIEKTISKAKGQPREPQVYVYPPSRDELTKNQVSLTCLVKGFYPSDIAVEWESNGQPENNYKTTPPVLDSDGSFALVSKLTVDKSRWQQGNVFSCSVMHEALHNHYTQKSLSLSPG
light: not shown
Fc: not shown
notes: OA format; also called v9996
Kd [1]: 2 nM
Kd [2]: 1.9 nM

B4: Variant 12502 (antibody, human IgG1, kappa)
heavy: B1 heavy with A30T, G49A, F70L, S75W
light: not shown
chain: not shown
notes: OA (one-armed) format; clones 7840, 1811, 4372; also called v12502
ΔΔG [5]: -1 kcal/mol
Ka, mut/Ka, WT [6]: 5.3 fold

B5: variant 12478 (antibody, human IgG1, kappa)
heavy: B1 heavy with A30Y, G49A, F70L
light: not shown
chain: not shown
notes: OA pertuzumab variant, HC T30Y (Kabat); also called v12478
Ka, mut/Ka, WT [3]: 3.5
Kd [1]: 5.6 nM
Ka, mut/Ka, WT [4]: 3.6
Kd [2]: 5.8 nM

B6: variant 12497 (antibody, human IgG1, kappa)
heavy: B1 heavy with A30T, G49A, Q62R, F70L
light: not shown
chain: not shown
notes: OA pertuzumab variant, HC Q61R (Kabat); also called v12497
Ka, mut/Ka, WT [3]: 1.4
Kd [1]: 14 nM
Ka, mut/Ka, WT [4]: 1.6
Kd [2]: 13 nM

B7: Variant 12505 (antibody, human IgG1, kappa)
heavy: B1 heavy with A30T, G49A, F70L, K76E
light: not shown
chain: not shown
notes: OA (one-armed) format; clones 7843, 1811, 4372; also called v12505
ΔΔG [5]: -0.8 kcal/mol
Ka, mut/Ka, WT [6]: 3.7 fold

B8: Variant 12610 (antibody, human IgG1, kappa)
heavy: B1 heavy with G49A, F70L
light: not shown
chain: not shown
notes: OA (one-armed) format; clones 3376, 1811, 4372; also called v12610
ΔΔG [5]: -0.9 kcal/mol
Ka, mut/Ka, WT [6]: 4.5 fold

B9: variant 12490 (antibody, human IgG1, kappa)
heavy: B1 heavy with A30T, G49A, G57Y, F70L
light: not shown
chain: not shown
notes: OA pertuzumab variant, HC G56Y (Kabat); also called v12490
Ka, mut/Ka, WT [3]: 2.5
Kd [1]: 7.7 nM
Ka, mut/Ka, WT [4]: 2.7
Kd [2]: 7.8 nM

B12: Variant 12479 (antibody, human IgG1, kappa)
heavy: B1 heavy with A30N, G49A, F70L
light: not shown
chain: not shown
notes: OA (one-armed) format; clones 7814, 1811, 4372; also called v12479
ΔΔG [5]: -0.9 kcal/mol
Ka, mut/Ka, WT [6]: 4.7 fold

B13: variant 12489 (antibody, human IgG1, kappa)
heavy: B1 heavy with A30T, G49A, G57M, F70L
light: not shown
chain: not shown
notes: OA pertuzumab variant, HC G56M (Kabat); also called v12489
Ka, mut/Ka, WT [3]: 1.4
Kd [1]: 14 nM
Ka, mut/Ka, WT [4]: 1.6
Kd [2]: 13 nM

B14: Variant 12536 (antibody, human IgG1, kappa)
heavy: B1 heavy with A30T, G49A, F70L
light: not shown
chain: not shown
notes: OA (one-armed) format; clones 3057, 7917, 4372; also called v12536
ΔΔG [5]: -0.8 kcal/mol
Ka, mut/Ka, WT [6]: 4 fold

B16: Variant 12514 (antibody, human IgG1, kappa)
heavy: B1 heavy with A30T, G49A, F70L, S103W
light: not shown
chain: not shown
notes: OA (one-armed) format; clones 7852, 1811, 4372; also called v12514
ΔΔG [5]: -0.9 kcal/mol
Ka, mut/Ka, WT [6]: 4.5 fold

The remaining lines, values ahead:

Ka, mut/Ka, WT [3]: 4.2
Kd [1]: 4.7 nM
Ka, mut/Ka, WT [4]: 4.8
Kd [2]: 4.4 nM
B2: variant 12538 (antibody, human IgG1, kappa)
heavy: B1 heavy with A30T, G49A, F70L
light: not shown
chain: not shown
notes: OA pertuzumab variant, LC Y49W (Kabat); also called v12538

Ka, mut/Ka, WT [3]: 4.1
Kd [1]: 4.8 nM
Ka, mut/Ka, WT [4]: 4
Kd [2]: 5.2 nM
B3: variant 12536 (antibody, human IgG1, kappa)
heavy: B1 heavy with A30T, G49A, F70L
light: not shown
chain: not shown
notes: OA pertuzumab variant, LC Y96G (Kabat); also called v12536

Ka, mut/Ka, WT [3]: 5.8
Kd [1]: 3.4 nM
Ka, mut/Ka, WT [4]: 4.5
Kd [2]: 4.6 nM
B10: variant 12514 (antibody, human IgG1, kappa)
heavy: B1 heavy with A30T, G49A, F70L, S103W
light: not shown
chain: not shown
notes: OA pertuzumab variant, HC S99W (Kabat); also called v12514

Ka, mut/Ka, WT [3]: 30.6
Kd [1]: 0.64 nM
Ka, mut/Ka, WT [4]: 30.6
Kd [2]: 0.68 nM
B11: variant 12506 (antibody, human IgG1, kappa)
heavy: B1 heavy with A30T, G49A, F70L, K76W
light: not shown
chain: not shown
notes: OA pertuzumab variant, HC K75W (Kabat); also called v12506

Ka, mut/Ka, WT [3]: 1.6
Kd [1]: 12 nM
Ka, mut/Ka, WT [4]: 1.9
Kd [2]: 11 nM
B15: variant 12540 (antibody, human IgG1, kappa)
heavy: B1 heavy with A30T, G49A, F70L
light: not shown
chain: not shown
notes: OA pertuzumab variant, LC Y96V (Kabat); also called v12540
